Literature values as cited in PMC6238587.

Biological target: PDI (Homo sapiens) (UniProt P07237)
Experiment: surface plasmon resonance
Conditions: cited from earlier work

PDI (Homo sapiens), sequence (P07237 18-508): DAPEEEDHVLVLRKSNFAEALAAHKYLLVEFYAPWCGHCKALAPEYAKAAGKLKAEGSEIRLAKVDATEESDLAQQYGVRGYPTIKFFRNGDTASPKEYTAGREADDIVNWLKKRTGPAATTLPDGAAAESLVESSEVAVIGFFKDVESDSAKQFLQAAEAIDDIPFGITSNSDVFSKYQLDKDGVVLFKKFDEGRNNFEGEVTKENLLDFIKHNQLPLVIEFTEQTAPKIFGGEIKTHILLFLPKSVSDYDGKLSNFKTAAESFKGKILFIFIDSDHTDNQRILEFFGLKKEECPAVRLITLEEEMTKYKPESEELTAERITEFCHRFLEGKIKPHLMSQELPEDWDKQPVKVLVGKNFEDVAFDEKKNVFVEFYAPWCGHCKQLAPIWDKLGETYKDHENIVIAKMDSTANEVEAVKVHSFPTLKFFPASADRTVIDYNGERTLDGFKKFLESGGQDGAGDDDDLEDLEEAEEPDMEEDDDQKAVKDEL

## Ero1α (from UniProt Q96HE7)
  Kd: 2.1 µM
